Results on 3 molecules are retold here after patent publication US20100196390A1 (RINAT NEUROSCIENCE, published 2010).

The target of assay [1] is T1, TrkB (Homo sapiens (Human), UniProt Q16620 32-430). As to the kind of experiment: koff of Fab at 37 C; T1/2=Log2/koff. The procedure, abridged:
(§1)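 Monovalent Fab fragments were tested at 37° C by surface plasmon resonance on a Biacore instrument, against TrkB extracellular-domain monomer amine-coupled to the chip at low capacity. Fabs were injected low to high as a 3-fold serial dilution from 100 nM for 84 sec, with a 10 minute dissociation after the top sample. The dissociation half-life was calculated from koff, which was fitted to a Langmuir binding model in BIAevaluation. The formula used was T1/2 = Log 2/koff.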

In assay [2] the target is T2, human TrkB monomer (His ECD) (human, UniProt Q16620 32-430).
T2 construct: extracellular domain; amine-coupled to the chip
As to the kind of experiment: SPR (Biacore), TrkB His ECD monomer on chip, 37 C. The method, then:
(§2) TrkB monomers (H is ECD) of human, mouse, and rat were amine-coupled to the chip at levels of 2008, 1008, and 889RU respectively in an effort to give low capacity surfaces suitable for kinetic analysis. Fabs (C1, C2, A2, 4A6, and 4B12) were diluted to 100 nM (according to their labeled concentrations by NanoDrop, using 1AU=0.6 mg/mL) to give the top concentration of a 3 fold serial dilution. Samples were injected from low to high concentration as a titration series for 84 sec, allowing a 10 minute dissociation phase for the 100 nM sample. […] The full-length mouse anti-TrkB antibody 38B8-IgG was used as a (+) control to confirm that the chip was active.
(§3) The concentrations of the Fab proteins are determined by ELISA and/or SDS-PAGE electrophoresis using a Fab of known concentration (as determined by amino acid analysis) as a standard. Kinetic association rates (kₒₙ) and dissociation rates (koff) (generally measured at 25° C. or 37° C.) are obtained simultaneously by fitting the data to a 1:1 Langmuir binding model (Karlsson, R. Roos, H. Fagerstam, L. Petersson, B., 1994 Methods Enzymology 6:99-110) using the BIAevaluation program. Equilibrium dissociation constant (KD) values are calculated as koff/kₒₙ.
(In general: Surface plasmon resonance follows binding to a sensor surface in real time, without labels.)

Assay [3] concerns the target T3, mouse TrkB monomer (His ECD) (mouse, UniProt P15209 32-429).
T3 construct: extracellular domain; amine-coupled to the chip
As to the kind of experiment: SPR (Biacore), TrkB His ECD monomer on chip, 37 C. The method, then: as §2, §3

Assay [4] addresses T4, rat TrkB monomer (His ECD) (rat, UniProt Q63604 32-429).
T4 construct: extracellular domain; amine-coupled to the chip
As to the kind of experiment: SPR (Biacore), TrkB His ECD monomer on chip, 37 C. The procedure: as §2, §3

Assay [5] addresses T2, human TrkB monomer (His ECD). As to the kind of experiment: Biacore, 37 C. The procedure, abridged: as §1
Assay [6] has as its target T1, TrkB. As to the kind of experiment: koff of Fab at 25 C; T1/2=Log2/koff. The procedure, abridged:
(§4)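 Monovalent Fab fragments were tested at 25° C by surface plasmon resonance on a Biacore instrument, against TrkB extracellular-domain monomer amine-coupled to the chip at low capacity. Fabs were injected low to high as a 3-fold serial dilution from 100 nM for 84 sec, with a 10 minute dissociation after the top sample. The dissociation half-life was calculated from koff, which was fitted to a Langmuir binding model in BIAevaluation. The formula used was T1/2 = Log 2/koff.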

Assay [7] deals with T2, human TrkB monomer (His ECD). As to the kind of experiment: SPR (Biacore), Fab over amine-coupled TrkB His ECD monomer, 25 C. The method, then:
as §2, §3

Assay [8] deals with T3, mouse TrkB monomer (His ECD). The description is as above. The procedure:
as §2, §3

For assay [9], the target named is T4, rat TrkB monomer (His ECD). The assay is described as above. The method, then: as §2, §3
Assay [10] deals with T2, human TrkB monomer (His ECD). As to the kind of experiment: Biacore, 25 C. An outline of the steps:
as §4

T4 sequence (Q63604 32-429): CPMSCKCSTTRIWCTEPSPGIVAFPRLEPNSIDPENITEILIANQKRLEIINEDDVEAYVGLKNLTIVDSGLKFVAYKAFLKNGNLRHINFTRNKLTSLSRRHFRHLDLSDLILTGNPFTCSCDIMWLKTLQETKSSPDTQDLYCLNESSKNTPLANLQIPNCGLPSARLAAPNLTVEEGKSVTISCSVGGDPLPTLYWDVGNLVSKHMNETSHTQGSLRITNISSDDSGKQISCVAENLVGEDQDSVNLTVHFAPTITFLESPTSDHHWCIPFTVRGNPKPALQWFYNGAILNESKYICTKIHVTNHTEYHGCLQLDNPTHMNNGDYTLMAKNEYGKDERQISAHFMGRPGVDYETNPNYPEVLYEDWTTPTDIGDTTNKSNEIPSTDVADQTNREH
T3 sequence (P15209 32-429): as the sequence (Q63604 32-429) above, with M3T, T9S, T10A, I32V, K63R, G84S, T153M, I185L, T394S counted along it
T2 sequence (Q16620 32-430): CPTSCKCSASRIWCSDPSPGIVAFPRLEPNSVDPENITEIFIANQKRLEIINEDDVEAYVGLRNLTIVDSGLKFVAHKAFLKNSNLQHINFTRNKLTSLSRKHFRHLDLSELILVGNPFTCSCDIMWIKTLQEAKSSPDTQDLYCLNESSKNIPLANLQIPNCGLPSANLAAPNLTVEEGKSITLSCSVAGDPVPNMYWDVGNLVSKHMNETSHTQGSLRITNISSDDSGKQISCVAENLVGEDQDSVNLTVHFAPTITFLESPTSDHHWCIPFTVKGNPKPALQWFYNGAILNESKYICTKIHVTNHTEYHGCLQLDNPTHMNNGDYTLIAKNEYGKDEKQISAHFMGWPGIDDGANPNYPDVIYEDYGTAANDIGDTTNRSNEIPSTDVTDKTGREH
T1 sequence (Q16620 32-430 limits assumed): as the sequence (Q16620 32-430) above

B1: RN1026A (Fab, V domains shown)
VH: QVQLVQSGAEVKKPGASVKVSCKASGYTFTNYDIIWVRQAPGQGLEWMGYINPYNRRREYNEKFKGRVTMTRDTSTSTVYMELSSLRSEDTAVYYCARLLKYRRFRYYAIDYWGQGTTVTVSS
VL: DIQMTQSPSSLSASVGDRVTITCRASENVYSNLAWYQQKPGKAPKLLIYAASNLQSGVPSRFSGSGSGTDFTFTISSLQPEDIATYYCQHFWGSPFTFGQGTKLEIK
notes: Fab
The term Kd denotes the equilibrium constant for the complex coming apart. A high value points to lower affinity. The koff is a measure of how fast the partners let go of each other. One may read the kon as the second-order rate constant of association. As to B1, the T1/2 in the assay with TrkB [1] came out at 4.5 min; in assay [5], 4.53 min. Besides, the Kd in [2] was determined as 1.27 nM; in assay [3], 2.27 nM; in [4], 4 nM. For the same molecule, the koff in assay [2] came out at 0.00255 s⁻¹; in assay [3], 0.00396 s⁻¹; in [4], 0.00924 s⁻¹. In addition, the kon in [2] was 2e+06 M⁻¹ s⁻¹; in assay [3], 1.75e+06 M⁻¹ s⁻¹; in assay [4] it was 1.41e+06 M⁻¹ s⁻¹.

B2: 4A6 (Fab, V domains shown)
VH: QVQLVQSGAEVKKPGASVKVSCKASGYTFTNYDIIWVRQAPGQGLEWMGYINPYNRRREYNEKFKGRVTMTRDTSTSTVYMELSSLRSEDTAVYYCARLLKYRRFRYYAIDYWGQGTTVTVSS
VL: DIQMTQSPSSLSASVGDRVTITCHASENVYSNLAWYQQKPGKAPKLLIYAASNLQSGVPSRFSGSGSGTDYTFTISSLQPEDIATYYCQHFWGSPFTFGQGTKLEIK
notes: Fab
The molecule B2 registered a T1/2 in the assay with TrkB [6] of 13.2 min. Besides, the Kd worked out at 0.18 nM in assay [7]; 0.02 nM in [8]; 0.27 nM in [9]; 0.17 nM in assay [2]; 0.37 nM in assay [3]. Moreover, the koff in assay [7] is 0.000705 s⁻¹; in [8], 9.24e-05 s⁻¹; in [9], 0.000666 s⁻¹; in assay [2], 0.000372 s⁻¹; in assay [3] it was 0.00066 s⁻¹. In addition, the kon in [7] was determined as 3.89e+06 M⁻¹ s⁻¹; in assay [8], 4.35e+06 M⁻¹ s⁻¹; in assay [9] it was 2.45e+06 M⁻¹ s⁻¹; in assay [2], 2.14e+06 M⁻¹ s⁻¹; in assay [3] it was 1.76e+06 M⁻¹ s⁻¹; in [4] it was 1.36e+06 M⁻¹ s⁻¹.

B3: C2 (Fab, V domains shown)
VH: QVQLVQSGAEVKKPGASVKVSCKASGYTFTNYDIIWVRQAPGQGLEWMGYINPYNDGTKYNEKFKGRVTMTRDTSTSTVYMELSSLRSEDTAVYYCARLLKYRRFRYYAIDYWGQGTTVTVSS
VL: DIQMTQSPSSLSASVGDRVTITCRTSENVYSNLAWYQQKPGKAPKLLIYAASNLQSGVPSRFSGSGSGTDYTFTISSLQPEDIATYYCQHFWGSPFTFGQGTKLEIK
notes: Fab
On to B3, for which the T1/2 (with TrkB [6]; in assay [10]) was 2.9 min throughout. The Kd in assay [7] is 2.54 nM; in assay [8] it was 1.44 nM; in [9], 2.29 nM. In addition, the koff was 0.0014 s⁻¹ in assay [7], 0.000734 s⁻¹ in assay [8] and 0.00146 s⁻¹ in [9]. Also, the kon in assay [7] is 552000 M⁻¹ s⁻¹; in assay [8], 510000 M⁻¹ s⁻¹; in assay [9] it was 638000 M⁻¹ s⁻¹.
